The results in this text go back to US20190022206A1 (UNIVERSITY OF COPENHAGEN, published 2019).

To fix the notation:
T1: biotinylated HPV16 Avi-L1 VLP, L1avi1 (H4-loop, HPV16) (Human papillomavirus type 16, UniProt P03101 14-505)
T1 construct: also called VLP1; Avi-L1 (H4-βJ coil)
T1 sequence: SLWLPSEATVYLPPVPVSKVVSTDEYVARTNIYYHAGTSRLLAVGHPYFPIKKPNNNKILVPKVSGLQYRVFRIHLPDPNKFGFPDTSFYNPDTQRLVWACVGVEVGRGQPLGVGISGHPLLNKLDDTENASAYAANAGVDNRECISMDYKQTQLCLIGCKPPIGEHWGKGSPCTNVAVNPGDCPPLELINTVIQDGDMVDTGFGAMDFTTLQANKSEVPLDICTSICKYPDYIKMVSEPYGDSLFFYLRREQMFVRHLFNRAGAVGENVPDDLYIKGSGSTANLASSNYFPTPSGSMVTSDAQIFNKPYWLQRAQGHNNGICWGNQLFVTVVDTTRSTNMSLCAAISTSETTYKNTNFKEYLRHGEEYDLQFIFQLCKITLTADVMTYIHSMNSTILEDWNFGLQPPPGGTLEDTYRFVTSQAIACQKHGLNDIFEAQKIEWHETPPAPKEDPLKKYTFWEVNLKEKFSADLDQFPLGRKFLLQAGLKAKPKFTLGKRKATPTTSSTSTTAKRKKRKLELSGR

T2: biotinylated HPV16 Avi-L1 VLP, L1avi3 (DE-loop, HPV16) (Human papillomavirus type 16, UniProt P03101 2-505)
T2 construct: also called VLP3; Avi-L1 (DE)
T2 sequence: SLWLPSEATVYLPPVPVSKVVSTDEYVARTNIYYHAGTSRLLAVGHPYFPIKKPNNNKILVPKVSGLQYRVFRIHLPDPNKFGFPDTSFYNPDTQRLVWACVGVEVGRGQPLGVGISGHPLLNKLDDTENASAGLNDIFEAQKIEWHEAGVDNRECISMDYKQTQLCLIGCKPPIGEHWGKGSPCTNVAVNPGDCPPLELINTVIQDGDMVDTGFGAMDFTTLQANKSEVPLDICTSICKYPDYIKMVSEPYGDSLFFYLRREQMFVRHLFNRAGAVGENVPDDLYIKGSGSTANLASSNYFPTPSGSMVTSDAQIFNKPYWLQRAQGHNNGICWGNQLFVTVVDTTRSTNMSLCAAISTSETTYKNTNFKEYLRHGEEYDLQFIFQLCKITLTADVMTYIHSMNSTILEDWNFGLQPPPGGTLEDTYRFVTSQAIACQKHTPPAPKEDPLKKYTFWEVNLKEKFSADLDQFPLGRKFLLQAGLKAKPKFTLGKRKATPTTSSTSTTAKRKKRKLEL

B1: HIS-GMZ2ggsmSA (other)
chain: GSTSENRNKRIGGPKLRGNVTSNIKFPSDNKGKIIRGSNDKLNKNSEDVLEQSEKSLVSENVPSGLDIDDIPKESIFIQEDQEGQTHSELNPETSEHSKDLNNNGSKNESSDIISENNKSNKVQNHFESLSDLELLENSSQDNLDKDTISTEPFPNQKHKDLQQDLNDEPLEPFPTQIHKDYKEKNLINEEDSEPFPRQKHKKVDNHNEEKNVFHENGSANGNQGSLKLKSFDEHLKDEKIENEPLVHENLSIPNDPIEQILNQPEQETNIQEQLYNEKQNVEEKQNSQIPSLDLKEPTNEDILPNHNPLENIKQSESEINHVQDHALPKENIIDKLDNQKEHIDQSQHNINVLQENNINNHQLEPQEKPNIESFEPKNIDSEIILPENVETEEIIDDVPSPKHSNHETFEEETSESEHEEAVSEKNAHETVEHEETVSQESNPEKADNDGNVSQNSNNELNENEFVESEKSEHEARSKAKEASSYDYILGWEFGGGVPEHKKEENMLSHLYVSSKDKENISKENDDVLDEKEEEAEETEEEELEEKNEEETESEISEDEEEEEEEEEKEEENDKKKEQEKEQSNENNDQKKDMEAQNLISKNQNNNEKNVKEAAESIMKTLAGLIKGNNQIDSTLKDLVEELSKYFKNHGGSGAEAGITGTWYNQHGSTFTVTAGADGNLTGQYENRAQGTGCQNSPYTLTGRYNGTKLEWRVEWNNSTENCHSRTEWRGQYQGGAEARINTQWNLTYEGGSGPATEQGQDTFTKVK
notes: also called A7
B2: mSA-ID1ID2a-HIS (other)
chain: AEAGITGTWYNQHGSTFTVTAGADGNLTGQYENRAQGTGCQNSPYTLTGRYNGTKLEWRVEWNNSTENCHSRTEWRGQYQGGAEARINTQWNLTYEGGSGPATEQGQDTFTKVKGGSNYIKGDPYFAEYATKLSFILNPSDANNPSGETANHNDEACNCNESGISSVGQAQTSGPSSNKTCITHSSIKTNKKKECKDVKLGVRENDKDLKICVIEDTSLSGVDNCCCQDLLGILQENCSDNKRGSSSNDSCDNKNQDECQKKLEKVFASLTNGYKCDKCKSGTSRSKKKWIWKKSSGNEEGLQEEYANTIGLPPRTQSLYLGNLPKLENVCEDVKDINFDTKEKFLAGCLIVSFHEGKNLKKRYPQNKNSGNKENLCKALEYSFADYGDLIKGTSIWDNEYTKDLELNLQNNFGKLFGKYIKKNNTAEQDTSYSSLDELRESWWNTNKKYIWTAMKHGAEMNITTCNADGSVTGSGSSCDDIPTIDLIPQYLRFLQEWVENFCEQRQAKVKDVITNCKSCKESGNKCKTECKTKCKDECEKYKKFIEACGTAGGGIGTAGSPWSKRWDQIYKRYSKHIEDAKRNRKAGTKNCGTSSTTNAAASTDENKCVQSDIDSFFKHLIDIGLTTPSSYLSNVLDDNICGADKAPWTTYTTYTTTEKCNKERDKSKSQSSDTLVVVNVPSPLGNTPYRYKYACQCKIPTNEETCDDRKEYMNQWSCGSARTMKRGYKNDNYELCKYNGVDVKPTTVRSNSSKLDHHHHHH
notes: mSA fused at the amino terminus by Gly-Gly-Ser to the ID1-ID2a domains of VAR2CSA, C-terminal 6x histidine tag; made in baculovirus-infected High-Five cells; also called A4; mSA-VAR2CSA
B3: mSA-PfRH5-HIS (other)
chain: AEAGITGTWYNQHGSTFTVTAGADGNLTGQYENRAQGTGCQNSPYTLTGRYNGTKLEWRVEWNNSTENCHSRTEWRGQYQGGAEARINTQWNLTYEGGSGPATEQGQDTFTKVKGGSLSFENAIKKTKNQENNLTLLPIKSTEEEKDDIKNGKDIKKEIDNDKENIKTNNAKDHSTYIKSYLNTNVNDGLKYLFIPSHNSFIKKYSVFNQINDGMLLNEKNDVKNNEDYKNVDYKNVNFLQYHFKELSNYNIANSIDILQEKEGHLDFVIIPHYTFLDYYKHLSYNSIYHKYSTYGKYIAVDAFIKKINETYDKVKSKCNDIKNDLIATIKKLEHPYDINNKNDDSYRYDISEEIDDKSEETDDETEEVEDSIQDTDSNHTPSNKKKNDLMNRTFKKMMDEYNTKKKKLIKCIKNHENDFNKICMDMKNYGTNLFEQLSCYNNNFCNTNGIRFHYDEYIHKLILSVKSKNLNKDLSDMTNILQQSELLLTNLNKKMGSYIYIDTIKFIHKEMKHIFNRIEYHTKIINDKTKIIQDKIKLNIWRTFQKDELLKRILDMSNEYSLFITSDHLRQMLYNTFYSKEKHLNNIFHHLIYVLQMKFNDVPIKMEYFQTYKKNKPLTQHHHHHH
notes: mSA fused by GGS to PfRH5, C-terminal His tag; also called A9
B4: mSA-RO-HIS (other)
chain: AEAGITGTWYNQHGSTFTVTAGADGNLTGQYENRAQGTGCQNSPYTLTGRYNGTKLEWRVEWNNSTENCHSRTEWRGQYQGGAEARINTQWNLTYEGGSGPATEQGQDTFTKVKGGSTSENRNKRIGGPKLRGNVTSNIKFPSDNKGKIIRGSNDKLNKNSEDVLEQSEKSLVSENVPSGLDIDDIPKESIFIQEDQEGQTHSELNPETSEHSKDLNNNGSKNESSDIISENNKSNKVQNHFESLSDLELLENSSQDNLDKDTISTEPFPNQKHKDLQQDLNDEPLEPFPTQIHKDYKEKNLINEEDSEPFPRQKHKKVDNHNEEKNVFHENGSANGNQGSLKLKSFDEHLKDEKIENEPLVHENLSIPNDPIEQILNQPEQETNIQEQLYNEKQNVEEKQNSQIPSLDLKEPTNEDILPNHNPLENIKQSESEINHVQDHALPKENIIDKLDNQKEHIDQSQHNINVLQENNINNHQLEPQEKPNIESFEPKNIDSEIILPENVETEEIIDDVPSPKHSNHETFEEETSESEHEEAVSEKNAHETVEHEETVSQESNPEKADNDGNVSQNSNNELNENEFVESEKSEHEARSKAKEASSYDYILGWEFGGGVPEHKKEENMLSHLYVSSKDKENISKENDDVLDEKEEEAEETEEEELEEKNEEETESEISEDEEEEEEEEEKEEENDKKKEQEKEQSNENNDQKKDMEAQNLISKNQNNNEKNVKEAAESIMKTLAGLIKGNNQIDSTLKDLVEELSKYFKNHRSHHHHHH
notes: also called A5
B5: HIS-RO-mSA (other)
chain: GSTSENRNKRIGGPKLRGNVTSNIKFPSDNKGKIIRGSNDKLNKNSEDVLEQSEKSLVSENVPSGLDIDDIPKESIFIQEDQEGQTHSELNPETSEHSKDLNNNGSKNESSDIISENNKSNKVQNHFESLSDLELLENSSQDNLDKDTISTEPFPNQKHKDLQQDLNDEPLEPFPTQIHKDYKEKNLINEEDSEPFPRQKHKKVDNHNEEKNVFHENGSANGNQGSLKLKSFDEHLKDEKIENEPLVHENLSIPNDPIEQILNQPEQETNIQEQLYNEKQNVEEKQNSQIPSLDLKEPTNEDILPNHNPLENIKQSESEINHVQDHALPKENIIDKLDNQKEHIDQSQHNINVLQENNINNHQLEPQEKPNIESFEPKNIDSEIILPENVETEEIIDDVPSPKHSNHETFEEETSESEHEEAVSEKNAHETVEHEETVSQESNPEKADNDGNVSQNSNNELNENEFVESEKSEHEAGGSGAEAGITGTWYNQHGSTFTVTAGADGNLTGQYENRAQGTGCQNSPYTLTGRYNGTKLEWRVEWNNSTENCHSRTEWRGQYQGGAEARINTQWNLTYEGGSGPATEQGQDTFTKVK
notes: also called A6
B6: HIS-GMZ2T:ggsmSA (other)
chain: GSTSENRNKRIGGPKLRGNVTSNIKFPSDNKGKIIRGSNDKLNKNSEDVLEQSEKSLVSENVPSGLDIDDIPKESIFIQEDQEGQTHSELNPETSEHSKDLNNNGSKNESSDIISENNKSNKVQNHFESLSDLELLENSSQDNLDKDTISTEPFPNQKHKDLQQDLNDEPLEPFPTQIHKDYKEKNLINEEDSEPFPRQKHKKVDNHNEEKNVFHENGSANGNQGSLKLKSFDEHLKDEKIENEPLVHENLSIPNDPIEQILNQPEQETNIQEQLYNEKQNVEEKQNSQIPSLDLKEPTNEDILPNHNPLENIKQSESEINHVQDHALPKENIIDKLDNQKEHIDQSQHNINVLQENNINNHQLEPQEKPNIESFEPKNIDSEIILPENVETEEIIDDVPSPKHSNHETFEEETSESEHEEAVSEKNAHETVEHEETVSQESNPEKADNDGNVSQNSNNELNENEFVESEKSEHEARSKTKEYAEKAKNAYEKAKNAYQKANQAVLKAKEASSYDYILGWEFGGGVPEHKKEENMLSHLYVSSKDKENISKENDDVLDEKEEEAEETEEEELEGGSGAEAGITGTWYNQHGSTFTVTAGADGNLTGQYENRAQGTGCQNSPYTLTGRYNGTKLEWRVEWNNSTENCHSRTEWRGQYQGGAEARINTQWNLTYEGGSGPATEQGQDTFTKVK
notes: also called A8
B7: mSA-Pfs25-HIS (other)
chain: AEAGITGTWYNQHGSTFTVTAGADGNLTGQYENRAQGTGCQNSPYTLTGRYNGTKLEWRVEWNNSTENCHSRTEWRGQYQGGAEARINTQWNLTYEGGSGPATEQGQDTFTKVKGGSNKLYSLFLFLFIQLSIKYNNAKVTVDTVCKRGFLIQMSGHLECKCENDLVLVNEETCEEKVLKCDEKTVNKPCGDFSKCIKIDGNPVSYACKCNLGYDMVNNVCIPNECKNVTCGNGKCILDTSNPVKTGVCSCNIGKVPNVQDQNKCSKDGETKCSLKCLKENETCKAVDGIYKCDCKDGFIIDNESSICTAFSAYNILNLSIMFILFSVCFFIM
notes: also called A10

One test deals with T1, biotinylated HPV16 Avi-L1 VLP, L1avi1 …. In words: biotinylated VLPs mixed with excess mSA-antigen, density gradient ultracentrifugation, SDS-PAGE.
Regarding B1, the binding result is “no binding”.
Still for that read-out and setting: as for B2, the entry is “no binding”; as for B3, “no binding”.
Same read-out and setting: as for B4, the entry is “no binding”; as for B5, “no binding”.
Same read-out and setting: as for B6, the entry is “no binding”.
As to B7, the binding result is reported as “no binding”.

The target of the next test is T2, biotinylated HPV16 Avi-L1 VLP, L1avi3 …. In words: coupling: biotinylated VLPs mixed with excess mSA-antigen, density gradient ultracentrifugation, SDS-PAGE.
For B1, the binding result is given as “binds”.
On the same count and under the same terms, as for B2, the entry is “binds”; as for B3, “binds”.
The same measure, in the same setting: as for B5, the entry is “binds”; as for B6, “binds”.
